Results on one molecule are retold here after publication PMC9366199, “Bivalent binding of p14ARF to MDM2 RING and acidic domains inhibits E3 ligase function” (Life Science Alliance, 2022).

This test concerns the target T1, UBE2D2^(S22R C85K)–Ub (UniProt P62837 2-147; P0CG48 1-76, S22R | C85K).
T1 construct: UBE2D2 with S22R and C85K, conjugated to ubiquitin; ubiquitin (Ub), conjugated to UBE2D2; also called UBE2D2–Ub; UBE2D2–Ub conjugate; source: purified as described previously (Buetow et al, 2015)
Put plainly: SPR; Biacore T200, 25°C; GST-MDM2 variants captured on anti-GST nanobodies on CM-5 chips (about 500 RU), GST as control; UBE2D2–Ub as analyte, seven twofold dilutions from 100 μM; 25 mM Tris-HCl pH 7.6, 300 mM NaCl, 0.5 mM TCEP, 0.005% Tween-20; steady-state affinity. Particulars: both partners purified. A general note: In SPR one partner is held on a chip, and binding of the other changes the refractive index at the surface.

B1: GST-tagged MDM2^419-C containing the RING domain (domain or fragment, UniProt Q00987 419-491, looked up)
chain: TQDKEESVESSLPLNAIEPCVICQGRPKNGCIVHGKTGHLMACFTCAKKLKKRNKPCPVCRQPIQMIVLTYFP
notes: MDM2, residues 419 to the C-terminus (RING domain); TEV site between GST and MDM2 (modified pGEX-4T-1); the oligomeric state of the GST fusion was not measured here; also called GST-MDM2^RING; MDM2^RING; source: E. coli BL21-DE3; co-expressed with His-GFP-MDM2^220-334, in lysate (pull-down); not shown: GST, N-terminal, kept
Regarding B1, binding was put at a Kd of 14.5 ± 1.4 µM.
